Data reported in the supplement of paper PMC10567573.

B1: ZNF75A (parent)
chain: RTHTGEQPYTCSICRRNFSRRSSL
B2: ZER1 (parent)
chain: KEMARKVIEHCSNFKEENMDTSR

Variants of: B1
Experiment: protein stability index of a GFP-peptide fusion (GPS, HEK-293T) (PSI 1-6); higher = more stable
Settings: c terminus: a fixed tail appended
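Further: lentivirally expressed fusions sorted by FACS into six bins by GFP to DsRed ratio, PSI derived from sequencing read proportions per bin multiplied by bin number.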

Protein stability index of substitutions, site by site:
S23: Y 1.78, W 2.34, V 2.5
L24: V 2.29, Q 3.05, H 3.23, I 2.79, E 4.02, S 2.99, W 1.96, Y 3.03, N 2.56, R 3.63, G 3.1, D 2.71, M 2.96, P 3.82, F 2.65, K 4.06, A 3.02, C 2.63, T 3.03

Variants of: B2
Experiment: as above
Settings: c terminus: native

Protein stability index: each site, then its substitutions
K6: E 4.5, T 2.74, D 4.19, R 2.63, Y 1.7, I 2.36, P 4.47, V 2.52, F 1.72, C 2.92, H 3.09, A 3.58, W 2.71, Q 3.73, M 2.14, L 1.52, S 2.96, N 3.89, G 4.21
E17: H 2.83, G 3.4, K 2.84, I 3.15, L 2.35, D 3.63, F 2.79, C 2.68, A 2.98
S12: R 3.25, D 4.24, I 2.56, P 4.37, Y 2.73, N 3.95, K 3.49, Q 3.55, E 3.85, H 3.66, A 3.7, L 2.45, W 2.63, G 4.21, F 2.77, M 2.54, T 3.59, V 2.96, C 2.98
K1: G 4.12, Q 4.3, C 2.6, A 3.7, R 4.31, Y 3.31, M 2.75, I 2.95, E 4.81, F 2.86, H 4.3, N 4.24, P 3.36, S 3.87, D 4.45, L 2.73, V 3.26, T 3.65, W 2.98
E2: Q 3.53, D 3.25, A 3.23, F 2.11, H 3.12, T 3.39, I 3.27, R 3.57, W 2.01, P 4.13, M 3.42, C 3.12, L 2.76, K 3.44, N 3.4, S 2.74, G 2.82, V 3.52, Y 2.35
M3: N 4.14, A 4.49, F 1.72, I 3.29, H 4.05, S 4.64, Q 4.45, Y 3.29, V 4.22, K 4.36, D 4.86, W 2.28, R 3.98, E 4.53, G 4.37, T 4.3, C 4.08, L 3.52, P 4.78
E16: D 3.07, L 2.52, R 2.98, M 2.68, S 4.19, V 3.43, G 3.83, N 3.19, P 3.31, C 3.17, Q 3.14, F 2.46, T 3.1, A 2.9, W 2.16, H 2.79, K 3.85, Y 2.37, I 2.45
V7: T 4.89, Y 2.09, L 1.92, C 4.55, N 5.1, E 5.27, M 2.44, G 5.13, S 4.98, W 3.19, D 5.26, A 4.87, R 4.65, Q 4.87, F 3.83, I 1.59, H 1.52, P 4.46, K 4.88
R5: H 3.72, V 3.14, Y 2.68, D 4.9, N 4.01, A 4.4, E 4.72, I 2.83, K 4.15, C 3.76, G 3.65, M 3.13, T 3.58, W 1.94, Q 3.26, S 3.81, L 2.74, P 4.74, F 2.48
N13: K 3.85, W 2.4, E 3.69, M 2.88, L 1.92, T 3.68, S 3.33, V 3.05, H 3.53, C 3.04, I 1.93, G 3.5, Q 3.07, D 3.61, R 3.11, A 3.28, P 3.32, F 2.49, Y 3.15
F14: R 4.55, H 4.8, G 4.69, K 4.92, L 4.03, W 3.33, Q 4.73, N 4.73, A 4.56, S 4.68, C 3.91, D 5.02, M 4.4, E 4.78, P 4.26, I 4.35, Y 3.56, V 4.94, T 4.46
A4: G 4.45, M 2.48, T 3.94, Q 4.21, Y 2.89, E 4.39, N 4.21, C 3.02, R 4.15, D 4.48, L 2.23, V 2.59, K 4.29, P 4.57, F 1.9, I 2.32, S 4.13, H 4.02
C11: P 4.83, V 2.84, R 4.48, Q 4.43, D 4.79, E 4.45, Y 2.11, I 2.02, G 4.63, M 2.58, F 1.38, A 4.77, N 4.26, H 3.87, K 4.94, S 3.96, L 2.59, W 2.19, T 4.62
E9: A 4, I 3.03, S 4.26, R 4.01, T 4.35, C 4.04, D 4.11, F 2.13, L 2.64, V 3.87, K 4.37, Y 3.16, P 4.58, M 2.96, Q 4.08, W 1.55, N 4.29, G 4.29, H 3.92
H10: G 4.56, L 1.76, R 3.59, M 1.81, N 4.29, V 3.33, P 5.17, C 3.1, W 2.15, Y 1.9, T 3.98, D 4.06, S 3.57, F 2.78, Q 3.83, E 3.69, A 3.49, I 1.94, K 4.78
I8: A 4.58, D 5.19, K 4.91, Q 4.67, E 4.87, F 3.2, V 4.35, T 4.4, W 1.86, H 4.29, P 4.7, R 4.33, M 3.51, N 4.98, G 4.64, C 4.42, L 3.13, S 3.92, Y 3.88
K15: E 4.32, S 3.34, G 3.7, C 3.93, A 3.31, T 4.15, Y 3.27, P 4.08, N 3.64, M 3.54, F 3.17, V 3.9, L 3.13, I 3.5, R 2.8, D 4.24, Q 3.57, H 3.52, W 2.85
